Measurements reported in patent US20200148784A1 (AGILVAX, published 2020).

T1: human-xCT ECD3 peptide (human)
T1 construct: Coated at 1 µg/mL
T1 peptide: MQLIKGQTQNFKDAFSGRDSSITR

B1: 11D1/H10 subclone A1 (antibody)
heavy: QVQLQQSGAELVRPGASVKLSCKALGYTFTDYEMHWVKQTPVHGLEWIGAIHPGSGGTAYNQKFKGKATLTADKSSSTAYMELSSLTSEDSAVYYCTRPLYYRYPYYFDYWGQGTTLTVSSESQSFPNVFPLVSCESPLSDKNLVAMGCLARDFLPSTISFTWNYQNNTEVIQGIRTFPTLRTGGKYLATSQVLLSPKSILEGSDEYLVCKIHYGGKNRDLHVPIPAVAEMNPNVNVFVPPRDGFSGPAPRKSKLICEATNFTPKPITVSWLKDGKLVESGFTTDPVTIENKGSTPQTYKVISTLTISEIDWLNLNVYTCRVDHRGLTFLKNVSSTCAASPSTDILTFTIPPSFADIFLSKSANLTCLVSNLATYETLNISWASQSGEPLETKIKIMESHPNGTFSAKGVASVCVEDWNNRKEFVCTVTHRDLPSPQKKFISKPNEVHKHPPAVYLLPPAREQLNLRESATVTCLVKGFSPADISVQWLQRGQLLPQEKYVTSAPMPEPGAPGFYFTHSILTVTEEEWNSGETYTCVVGHEALPHLVTERTVDKSTGKPTLYNVSLIMSDTGGTCY
light: QIVLTQSPAIMSASPGEKVTISCSASSSVSYMYWYQQKPGSSPKPWIYRTSNLASGVPARFSGSGSGTSYSLTISSMEAEDAATYYCQQYHSYPLTFGAGTKLELKRADAAPTVSIFPPSSEQLTSGGASVVCFLNNFYPKDINVKWKIDGSERQNGVLNSWTDQDSKDSTYSMSSTLTLTKDEYERHNSYTCEATHKTSTSPIVKSFNRNEC
B2: 11D1/H10 subclone D5 (antibody)
heavy: QVQLQQSGAELVRPGASVKLSCKALGYTFTDYEMHWVKQTPVHGLEWIGAIHPGSGGTAYNQKFKGKATLTADKSSSTAYMELSSLTSEDSAVYYCTRPLYYRYPYYFDYWGQGTTLTVSSESQSFPNVFPLVSCESPLSDKNLVAMGCLARDFLPSTISFTWNYQNNTEVIQGIRTFPTLRTGGKYLATSQVLLSPKSILEGSDEYLVCKIHYGGKNRDLHVPIPAVAEMNPNVNVFVPPRDGFSGPAPRKSKLICEATNFTPKPITVSWLKDGKLVESGFTTDPVTIENKGSTPQTYKVISTLTISEIDWLNLNVYTCRVDHRGLTFLKNVSSTCAASPSTDILTFTIPPSFADIFLSKSANLTCLVSNLATYETLNISWASQSGEPLETKIKIMESHPNGTFSAKGVASVCVEDWNNRKEFVCTVTHRDLPSPQKKFISKPNEVHKHPPAVYLLPPAREQLNLRESATVTCLVKGFSPADISVQWLQRGQLLPQEKYVTSAPMPEPGAPGFYFTHSILTVTEEEWNSGETYTCVVGHEALPHLVTERTVDKSTGKPTLYNVSLIMSDTGGTCY
light: QIVLTQSPAIMSASPGEKVTISCSASSSVSYMYWYQQKPGSSPKPWIYRTSNLASGVPARFSGSGSGTSYSLTISSMEAEDAATYYCQQYHSYPLTFGAGTKLELKRADAAPTVSIFPPSSEQLTSGGASVVCFLNNFYPKDINVKWKIDGSERQNGVLNSWTDQDSKDSTYSMSSTLTLTKDEYERHNSYTCEATHKTSTSPIVKSFNRNEC
notes: IgM kappa
B3: 11D1/H10 subclone B9 (antibody)
heavy: QVQLQQSGAELVRPGASVKLSCKALGYTFTDYEMHWVKQTPVHGLEWIGAIHPGSGGTAYNQKFKGKATLTADKSSSTAYMELSSLTSEDSAVYYCTRPLYYRYPYYFDYWGQGTTLTVSSESQSFPNVFPLVSCESPLSDKNLVAMGCLARDFLPSTISFTWNYQNNTEVIQGIRTFPTLRTGGKYLATSQVLLSPKSILEGSDEYLVCKIHYGGKNRDLHVPIPAVAEMNPNVNVFVPPRDGFSGPAPRKSKLICEATNFTPKPITVSWLKDGKLVESGFTTDPVTIENKGSTPQTYKVISTLTISEIDWLNLNVYTCRVDHRGLTFLKNVSSTCAASPSTDILTFTIPPSFADIFLSKSANLTCLVSNLATYETLNISWASQSGEPLETKIKIMESHPNGTFSAKGVASVCVEDWNNRKEFVCTVTHRDLPSPQKKFISKPNEVHKHPPAVYLLPPAREQLNLRESATVTCLVKGFSPADISVQWLQRGQLLPQEKYVTSAPMPEPGAPGFYFTHSILTVTEEEWNSGETYTCVVGHEALPHLVTERTVDKSTGKPTLYNVSLIMSDTGGTCY
light: QIVLTQSPAIMSASPGEKVTISCSASSSVSYMYWYQQKPGSSPKPWIYRTSNLASGVPARFSGSGSGTSYSLTISSMEAEDAATYYCQQYHSYPLTFGAGTKLELKRADAAPTVSIFPPSSEQLTSGGASVVCFLNNFYPKDINVKWKIDGSERQNGVLNSWTDQDSKDSTYSMSSTLTLTKDEYERHNSYTCEATHKTSTSPIVKSFNRNEC
notes: IgM kappa
B4: 11D1/H10 subclone E1 (antibody)
heavy: QVQLQQSGAELVRPGASVKLSCKALGYTFTDYEMHWVKQTPVHGLEWIGAIHPGSGGTAYNQKFKGKATLTADKSSSTAYMELSSLTSEDSAVYYCTRPLYYRYPYYFDYWGQGTTLTVSSESQSFPNVFPLVSCESPLSDKNLVAMGCLARDFLPSTISFTWNYQNNTEVIQGIRTFPTLRTGGKYLATSQVLLSPKSILEGSDEYLVCKIHYGGKNRDLHVPIPAVAEMNPNVNVFVPPRDGFSGPAPRKSKLICEATNFTPKPITVSWLKDGKLVESGFTTDPVTIENKGSTPQTYKVISTLTISEIDWLNLNVYTCRVDHRGLTFLKNVSSTCAASPSTDILTFTIPPSFADIFLSKSANLTCLVSNLATYETLNISWASQSGEPLETKIKIMESHPNGTFSAKGVASVCVEDWNNRKEFVCTVTHRDLPSPQKKFISKPNEVHKHPPAVYLLPPAREQLNLRESATVTCLVKGFSPADISVQWLQRGQLLPQEKYVTSAPMPEPGAPGFYFTHSILTVTEEEWNSGETYTCVVGHEALPHLVTERTVDKSTGKPTLYNVSLIMSDTGGTCY
light: QIVLTQSPAIMSASPGEKVTISCSASSSVSYMYWYQQKPGSSPKPWIYRTSNLASGVPARFSGSGSGTSYSLTISSMEAEDAATYYCQQYHSYPLTFGAGTKLELKRADAAPTVSIFPPSSEQLTSGGASVVCFLNNFYPKDINVKWKIDGSERQNGVLNSWTDQDSKDSTYSMSSTLTLTKDEYERHNSYTCEATHKTSTSPIVKSFNRNEC
notes: IgM kappa
B5: 11D1/H10 subclone A5 (antibody)
heavy: QVQLQQSGAELVRPGASVKLSCKALGYTFTDYEMHWVKQTPVHGLEWIGAIHPGSGGTAYNQKFKGKATLTADKSSSTAYMELSSLTSEDSAVYYCTRPLYYRYPYYFDYWGQGTTLTVSSESQSFPNVFPLVSCESPLSDKNLVAMGCLARDFLPSTISFTWNYQNNTEVIQGIRTFPTLRTGGKYLATSQVLLSPKSILEGSDEYLVCKIHYGGKNRDLHVPIPAVAEMNPNVNVFVPPRDGFSGPAPRKSKLICEATNFTPKPITVSWLKDGKLVESGFTTDPVTIENKGSTPQTYKVISTLTISEIDWLNLNVYTCRVDHRGLTFLKNVSSTCAASPSTDILTFTIPPSFADIFLSKSANLTCLVSNLATYETLNISWASQSGEPLETKIKIMESHPNGTFSAKGVASVCVEDWNNRKEFVCTVTHRDLPSPQKKFISKPNEVHKHPPAVYLLPPAREQLNLRESATVTCLVKGFSPADISVQWLQRGQLLPQEKYVTSAPMPEPGAPGFYFTHSILTVTEEEWNSGETYTCVVGHEALPHLVTERTVDKSTGKPTLYNVSLIMSDTGGTCY
light: QIVLTQSPAIMSASPGEKVTISCSASSSVSYMYWYQQKPGSSPKPWIYRTSNLASGVPARFSGSGSGTSYSLTISSMEAEDAATYYCQQYHSYPLTFGAGTKLELKRADAAPTVSIFPPSSEQLTSGGASVVCFLNNFYPKDINVKWKIDGSERQNGVLNSWTDQDSKDSTYSMSSTLTLTKDEYERHNSYTCEATHKTSTSPIVKSFNRNEC
notes: IgM kappa

Molecular target: T1, human-xCT ECD3 peptide
Experiment: ELISA of subclone supernatant against xCT
For B1, the “ELISA O.D. 450” value was at least 0.4. B2 was tested, and the “ELISA O.D. 450” value was at least 0.4. With B3 the “ELISA O.D. 450” value was at least 0.4. B4 was tested, and the “ELISA O.D. 450” value was at least 0.4. In the case of B5, the “ELISA O.D. 450” value is reported as at least 0.4.
